Target: NSTTR, artificially mutated variant of TTR carrying the double mutation N99R/S100R
Experiment: SEC-MALS

Substance “NSTTR, artificially mutated variant of TTR carrying the double mutation N99R/S100R (natural protein)” has a stoichiometry N of 4.

— article doi:10.1101/852715
